Data: paper PMC3671775

Target: extracellular fragment of human macrophage galactose receptor (MGL) isoform 3 (human)
Experiment: cross-linking

extracellular fragment of human macrophage galactose receptor (MGL) isoform 3 (domain or fragment)
stoichiometry N: 3
